Source: publication PMC9482650, “Quantitative fragmentomics allow affinity mapping of interactomes” (Nature Communications, 2022)

biological target: Inadl_8, Q8NI35; assay: holdup assay; set-up: key: below the threshold = too weak to quantify, mostly under pKd 3.1 to 4; details: plain residues with an end cap or a label only (N-terminal biotin on a linker: ado-ado)
Sequence (Q8NI35 1425-1530): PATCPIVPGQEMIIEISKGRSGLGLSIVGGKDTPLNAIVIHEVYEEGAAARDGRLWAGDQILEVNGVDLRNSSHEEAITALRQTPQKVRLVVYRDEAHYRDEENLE

| Binder | pKd |
| --- | --- |
| PEEGKKQSQC [GAGE12J, A6NER3] | 3.5 |
| SSGSTSSSRI [ADGRG1, Q9Y653] | 3.7 |

biological target: PARD3_3, Q8TEW0; assay: holdup assay; set-up: key: below the threshold = too weak to quantify, mostly under pKd 3.1 to 4; details: plain residues with an end cap or a label only (N-terminal biotin on a linker: ado-ado)
Sequence (Q8TEW0 582-685): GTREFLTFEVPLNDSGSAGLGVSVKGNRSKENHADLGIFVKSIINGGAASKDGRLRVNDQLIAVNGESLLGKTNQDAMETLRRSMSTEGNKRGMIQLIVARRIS

| Binder | pKd |
| --- | --- |
| PEEGKKQSQC [GAGE12J, A6NER3] | below the threshold |
| SSGSTSSSRI [ADGRG1, Q9Y653] | below the threshold |

biological target: T1, DLG3_1, Q92796; assay: holdup assay; set-up: key: below the threshold = too weak to quantify, mostly under pKd 3.1 to 4; details: plain residues with an end cap or a label only (N-terminal biotin on a linker: ado-ado)
T1 sequence (Q92796 125-227, limits assumed, looked up): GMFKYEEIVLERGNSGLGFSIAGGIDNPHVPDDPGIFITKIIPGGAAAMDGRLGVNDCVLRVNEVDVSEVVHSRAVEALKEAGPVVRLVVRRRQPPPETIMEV

| Binder | pKd |
| --- | --- |
| PEEGKKQSQC [GAGE12J, A6NER3] | below the threshold |
| SSGSTSSSRI [ADGRG1, Q9Y653] | 3.54 |

biological target: GRIP2_3, Q9C0E4; assay: holdup assay; set-up: key: below the threshold = too weak to quantify, mostly under pKd 3.1 to 4; details: plain residues with an end cap or a label only (N-terminal biotin on a linker: ado-ado)
Sequence (Q9C0E4 238-339): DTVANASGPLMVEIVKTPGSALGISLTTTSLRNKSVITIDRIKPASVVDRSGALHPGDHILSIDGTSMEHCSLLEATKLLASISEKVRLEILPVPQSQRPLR

| Binder | pKd |
| --- | --- |
| PEEGKKQSQC [GAGE12J, A6NER3] | below the threshold |
| SSGSTSSSRI [ADGRG1, Q9Y653] | below the threshold |

biological target: LIMK2, P53671; assay: holdup assay; set-up: key: below the threshold = too weak to quantify, mostly under pKd 3.1 to 4; details: plain residues with an end cap or a label only (N-terminal biotin on a linker: ado-ado)
Sequence (P53671 143-248): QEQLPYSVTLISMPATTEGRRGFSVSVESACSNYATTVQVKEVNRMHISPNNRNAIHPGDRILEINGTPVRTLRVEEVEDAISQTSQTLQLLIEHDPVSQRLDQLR

| Binder | pKd |
| --- | --- |
| PEEGKKQSQC [GAGE12J, A6NER3] | below the threshold |
| SSGSTSSSRI [ADGRG1, Q9Y653] | below the threshold |

biological target: T2, LNX2_2, Q8N448; assay: holdup assay; set-up: key: below the threshold = too weak to quantify, mostly under pKd 3.1 to 4; details: plain residues with an end cap or a label only (N-terminal biotin on a linker: ado-ado)
T2 sequence (Q8N448 334-432, limits assumed, looked up): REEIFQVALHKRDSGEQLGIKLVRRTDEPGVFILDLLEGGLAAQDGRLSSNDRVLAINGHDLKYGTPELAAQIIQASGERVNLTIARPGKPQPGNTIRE

| Binder | pKd |
| --- | --- |
| PEEGKKQSQC [GAGE12J, A6NER3] | below the threshold |
| SSGSTSSSRI [ADGRG1, Q9Y653] | below the threshold |

biological target: IL16_1, Q14005; assay: holdup assay; set-up: key: below the threshold = too weak to quantify, mostly under pKd 3.1 to 4; details: plain residues with an end cap or a label only (N-terminal biotin on a linker: ado-ado)
Sequence (Q14005 210-306): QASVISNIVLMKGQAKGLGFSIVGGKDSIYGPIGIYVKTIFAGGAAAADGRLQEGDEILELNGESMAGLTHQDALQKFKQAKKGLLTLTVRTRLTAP

| Binder | pKd |
| --- | --- |
| PEEGKKQSQC [GAGE12J, A6NER3] | below the threshold |
| SSGSTSSSRI [ADGRG1, Q9Y653] | below the threshold |

biological target: PDLIM1, O00151; assay: holdup assay; set-up: key: below the threshold = too weak to quantify, mostly under pKd 3.1 to 4; details: plain residues with an end cap or a label only (N-terminal biotin on a linker: ado-ado)
Sequence (O00151 1-87): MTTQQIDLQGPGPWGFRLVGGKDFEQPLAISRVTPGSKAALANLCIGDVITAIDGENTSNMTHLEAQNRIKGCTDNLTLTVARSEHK

| Binder | pKd |
| --- | --- |
| PEEGKKQSQC [GAGE12J, A6NER3] | below the threshold |
| SSGSTSSSRI [ADGRG1, Q9Y653] | below the threshold |

biological target: HTRA1, Q92743; assay: holdup assay; set-up: key: below the threshold = too weak to quantify, mostly under pKd 3.1 to 4; details: plain residues with an end cap or a label only (N-terminal biotin on a linker: ado-ado)
Sequence (Q92743 360-477): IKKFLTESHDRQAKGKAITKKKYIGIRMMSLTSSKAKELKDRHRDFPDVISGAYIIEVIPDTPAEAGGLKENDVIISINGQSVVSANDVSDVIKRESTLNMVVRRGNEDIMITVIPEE

| Binder | pKd |
| --- | --- |
| PEEGKKQSQC [GAGE12J, A6NER3] | below the threshold |
| SSGSTSSSRI [ADGRG1, Q9Y653] | below the threshold |

biological target: DLG4_2, P78352; assay: holdup assay; set-up: key: below the threshold = too weak to quantify, mostly under pKd 3.1 to 4; details: plain residues with an end cap or a label only (N-terminal biotin on a linker: ado-ado)
Sequence (P78352 155-259): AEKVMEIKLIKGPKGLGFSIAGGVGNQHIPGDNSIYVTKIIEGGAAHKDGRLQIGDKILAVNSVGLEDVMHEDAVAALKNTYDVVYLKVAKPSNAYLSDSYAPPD

| Binder | pKd |
| --- | --- |
| PEEGKKQSQC [GAGE12J, A6NER3] | 3.59 |
| SSGSTSSSRI [ADGRG1, Q9Y653] | 3.6 |

biological target: DLG4_3, P78352; assay: holdup assay; set-up: key: below the threshold = too weak to quantify, mostly under pKd 3.1 to 4; details: plain residues with an end cap or a label only (N-terminal biotin on a linker: ado-ado)
Sequence (P78352 306-403): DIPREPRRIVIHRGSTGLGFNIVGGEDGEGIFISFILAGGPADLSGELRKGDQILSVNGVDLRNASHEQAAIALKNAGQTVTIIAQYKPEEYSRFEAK

| Binder | pKd |
| --- | --- |
| PEEGKKQSQC [GAGE12J, A6NER3] | 3.75 |
| SSGSTSSSRI [ADGRG1, Q9Y653] | below the threshold |

biological target: HTRA2, O43464; assay: holdup assay; set-up: key: below the threshold = too weak to quantify, mostly under pKd 3.1 to 4; details: plain residues with an end cap or a label only (N-terminal biotin on a linker: ado-ado)
Sequence (O43464 355-458): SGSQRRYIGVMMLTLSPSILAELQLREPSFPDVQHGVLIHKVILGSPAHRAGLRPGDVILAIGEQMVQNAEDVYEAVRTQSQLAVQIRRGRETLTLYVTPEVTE

| Binder | pKd |
| --- | --- |
| PEEGKKQSQC [GAGE12J, A6NER3] | below the threshold |
| SSGSTSSSRI [ADGRG1, Q9Y653] | below the threshold |

biological target: T3, PCLO, Q9Y6V0; assay: holdup assay; set-up: key: below the threshold = too weak to quantify, mostly under pKd 3.1 to 4; details: plain residues with an end cap or a label only (N-terminal biotin on a linker: ado-ado)
T3 sequence (Q9Y6V0 4491-4600, limits assumed, looked up): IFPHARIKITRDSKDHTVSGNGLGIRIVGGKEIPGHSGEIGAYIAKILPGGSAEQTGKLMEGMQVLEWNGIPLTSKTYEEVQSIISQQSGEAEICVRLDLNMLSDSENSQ

| Binder | pKd |
| --- | --- |
| PEEGKKQSQC [GAGE12J, A6NER3] | below the threshold |
| SSGSTSSSRI [ADGRG1, Q9Y653] | below the threshold |

biological target: SNX27, Q96L92; assay: holdup assay; set-up: key: below the threshold = too weak to quantify, mostly under pKd 3.1 to 4; details: plain residues with an end cap or a label only (N-terminal biotin on a linker: ado-ado)

| Binder | pKd |
| --- | --- |
| PEEGKKQSQC [GAGE12J, A6NER3] | below the threshold |
| SSGSTSSSRI [ADGRG1, Q9Y653] | 3.56 |

biological target: NHERF4_1, Q86UT5-2; assay: holdup assay; set-up: key: below the threshold = too weak to quantify, mostly under pKd 3.1 to 4; details: plain residues with an end cap or a label only (N-terminal biotin on a linker: ado-ado)
Sequence (Q86UT5 other isoform, or with tags, fused parts or gaps): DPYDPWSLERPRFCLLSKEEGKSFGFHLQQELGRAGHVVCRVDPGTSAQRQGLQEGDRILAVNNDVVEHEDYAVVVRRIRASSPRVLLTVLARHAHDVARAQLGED

| Binder | pKd |
| --- | --- |
| PEEGKKQSQC [GAGE12J, A6NER3] | 3.79 |
| SSGSTSSSRI [ADGRG1, Q9Y653] | below the threshold |

biological target: T4, SNTG2, Q9NY99; assay: holdup assay; set-up: key: below the threshold = too weak to quantify, mostly under pKd 3.1 to 4; details: plain residues with an end cap or a label only (N-terminal biotin on a linker: ado-ado)
T4 sequence (Q9NY99 68-166, limits assumed, looked up): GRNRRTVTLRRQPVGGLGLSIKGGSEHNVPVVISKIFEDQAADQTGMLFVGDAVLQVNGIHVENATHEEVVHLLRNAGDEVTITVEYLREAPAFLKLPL

| Binder | pKd |
| --- | --- |
| PEEGKKQSQC [GAGE12J, A6NER3] | 3.51 |
| SSGSTSSSRI [ADGRG1, Q9Y653] | 3.68 |

biological target: T5, SNTA1, Q13424; assay: holdup assay; set-up: key: below the threshold = too weak to quantify, mostly under pKd 3.1 to 4; details: plain residues with an end cap or a label only (N-terminal biotin on a linker: ado-ado)
T5 sequence (Q13424 82-180, limits assumed, looked up): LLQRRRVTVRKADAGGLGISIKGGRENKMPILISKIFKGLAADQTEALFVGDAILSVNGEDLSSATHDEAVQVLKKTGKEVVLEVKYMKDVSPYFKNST

| Binder | pKd |
| --- | --- |
| PEEGKKQSQC [GAGE12J, A6NER3] | below the threshold |
| SSGSTSSSRI [ADGRG1, Q9Y653] | below the threshold |

biological target: IL16_4, Q14005; assay: holdup assay; set-up: key: below the threshold = too weak to quantify, mostly under pKd 3.1 to 4; details: plain residues with an end cap or a label only (N-terminal biotin on a linker: ado-ado)
Sequence (Q14005 1229-1329): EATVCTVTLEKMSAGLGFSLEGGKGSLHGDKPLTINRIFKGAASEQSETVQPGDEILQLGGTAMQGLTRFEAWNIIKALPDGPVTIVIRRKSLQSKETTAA

| Binder | pKd |
| --- | --- |
| PEEGKKQSQC [GAGE12J, A6NER3] | 3.69 |
| SSGSTSSSRI [ADGRG1, Q9Y653] | 3.63 |

biological target: T6, PDZRN3_1, Q9UPQ7; assay: holdup assay; set-up: key: below the threshold = too weak to quantify, mostly under pKd 3.1 to 4; details: plain residues with an end cap or a label only (N-terminal biotin on a linker: ado-ado)
T6 sequence (Q9UPQ7 244-349, limits assumed, looked up): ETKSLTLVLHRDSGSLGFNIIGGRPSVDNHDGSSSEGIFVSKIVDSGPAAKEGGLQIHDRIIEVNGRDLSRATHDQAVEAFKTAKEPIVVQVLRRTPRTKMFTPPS

| Binder | pKd |
| --- | --- |
| PEEGKKQSQC [GAGE12J, A6NER3] | below the threshold |
| SSGSTSSSRI [ADGRG1, Q9Y653] | below the threshold |

biological target: FRMPD2_1, Q68DX3; assay: holdup assay; set-up: key: below the threshold = too weak to quantify, mostly under pKd 3.1 to 4; details: plain residues with an end cap or a label only (N-terminal biotin on a linker: ado-ado)
Sequence (Q68DX3 770-861): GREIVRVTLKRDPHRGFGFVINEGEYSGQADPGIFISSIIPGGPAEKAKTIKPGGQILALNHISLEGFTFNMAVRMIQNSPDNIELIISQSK

| Binder | pKd |
| --- | --- |
| PEEGKKQSQC [GAGE12J, A6NER3] | below the threshold |
| SSGSTSSSRI [ADGRG1, Q9Y653] | below the threshold |

biological target: IL16_3, Q14005; assay: holdup assay; set-up: key: below the threshold = too weak to quantify, mostly under pKd 3.1 to 4; details: plain residues with an end cap or a label only (N-terminal biotin on a linker: ado-ado)
Sequence (Q14005 1107-1207): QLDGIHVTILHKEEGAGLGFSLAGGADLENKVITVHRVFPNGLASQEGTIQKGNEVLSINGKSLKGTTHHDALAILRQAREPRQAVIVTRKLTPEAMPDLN

| Binder | pKd |
| --- | --- |
| PEEGKKQSQC [GAGE12J, A6NER3] | below the threshold |
| SSGSTSSSRI [ADGRG1, Q9Y653] | below the threshold |

biological target: T7, RHPN1, Q8TCX5; assay: holdup assay; set-up: key: below the threshold = too weak to quantify, mostly under pKd 3.1 to 4; details: plain residues with an end cap or a label only (N-terminal biotin on a linker: ado-ado)
T7 sequence (Q8TCX5 508-602, limits assumed, looked up): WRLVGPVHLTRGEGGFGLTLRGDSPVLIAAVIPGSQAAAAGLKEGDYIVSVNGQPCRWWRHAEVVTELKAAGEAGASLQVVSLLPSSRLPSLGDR

| Binder | pKd |
| --- | --- |
| PEEGKKQSQC [GAGE12J, A6NER3] | below the threshold |
| SSGSTSSSRI [ADGRG1, Q9Y653] | 3.93 |

biological target: T8, TX1BP3, O14907; assay: holdup assay; set-up: key: below the threshold = too weak to quantify, mostly under pKd 3.1 to 4; details: plain residues with an end cap or a label only (N-terminal biotin on a linker: ado-ado)
T8 sequence (O14907 10-122, limits assumed, looked up): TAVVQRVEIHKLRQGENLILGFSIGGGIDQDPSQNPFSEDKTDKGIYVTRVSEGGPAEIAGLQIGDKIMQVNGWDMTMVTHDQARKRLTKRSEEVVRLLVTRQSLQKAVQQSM

| Binder | pKd |
| --- | --- |
| PEEGKKQSQC [GAGE12J, A6NER3] | below the threshold |
| SSGSTSSSRI [ADGRG1, Q9Y653] | below the threshold |

biological target: T9, FRMPD1, Q5SYB0; assay: holdup assay; set-up: key: below the threshold = too weak to quantify, mostly under pKd 3.1 to 4; details: plain residues with an end cap or a label only (N-terminal biotin on a linker: ado-ado)
T9 sequence (Q5SYB0 52-145, limits assumed, looked up): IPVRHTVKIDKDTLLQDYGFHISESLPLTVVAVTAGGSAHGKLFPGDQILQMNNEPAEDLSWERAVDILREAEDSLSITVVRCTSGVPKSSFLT

| Binder | pKd |
| --- | --- |
| PEEGKKQSQC [GAGE12J, A6NER3] | below the threshold |
| SSGSTSSSRI [ADGRG1, Q9Y653] | below the threshold |

biological target: T10, MPP2, Q14168; assay: holdup assay; set-up: key: below the threshold = too weak to quantify, mostly under pKd 3.1 to 4; details: plain residues with an end cap or a label only (N-terminal biotin on a linker: ado-ado)
T10 sequence (Q14168 180-250, limits assumed, looked up): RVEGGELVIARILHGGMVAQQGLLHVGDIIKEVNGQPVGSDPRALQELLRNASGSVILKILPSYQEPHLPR

| Binder | pKd |
| --- | --- |
| PEEGKKQSQC [GAGE12J, A6NER3] | below the threshold |
| SSGSTSSSRI [ADGRG1, Q9Y653] | below the threshold |

biological target: T11, LIN7B, Q9HAP6; assay: holdup assay; set-up: key: below the threshold = too weak to quantify, mostly under pKd 3.1 to 4; details: plain residues with an end cap or a label only (N-terminal biotin on a linker: ado-ado)
T11 sequence (Q9HAP6 88-185, limits assumed, looked up): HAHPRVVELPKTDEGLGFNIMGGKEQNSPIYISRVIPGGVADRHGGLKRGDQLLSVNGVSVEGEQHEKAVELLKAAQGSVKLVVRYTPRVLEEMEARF

| Binder | pKd |
| --- | --- |
| PEEGKKQSQC [GAGE12J, A6NER3] | 3.74 |
| SSGSTSSSRI [ADGRG1, Q9Y653] | 3.82 |

biological target: Inadl_4, Q8NI35; assay: holdup assay; set-up: key: below the threshold = too weak to quantify, mostly under pKd 3.1 to 4; details: plain residues with an end cap or a label only (N-terminal biotin on a linker: ado-ado)
Sequence (Q8NI35 547-651): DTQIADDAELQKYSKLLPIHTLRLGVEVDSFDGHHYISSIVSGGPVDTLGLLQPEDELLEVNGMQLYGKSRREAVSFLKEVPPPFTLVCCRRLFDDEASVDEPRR

| Binder | pKd |
| --- | --- |
| PEEGKKQSQC [GAGE12J, A6NER3] | below the threshold |
| SSGSTSSSRI [ADGRG1, Q9Y653] | below the threshold |
